Tested on: Escherichia coli TOP10
Test: shrunken log2 fold change of peptide-encoding DNA abundance (4.5 h post-induction vs induction); higher = less antimicrobial activity (less host growth inhibition)
Details: time post-induction: 4.5 h; library: site-saturation at positions 5, 18, 19, 20
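Note: peptides expressed intracellularly from a pBAD plasmid library in pooled LB shake-flask culture, induced with 0.3% L-arabinose, DNA abundance read by NGS, three biological replicates, DESeq2 with apeglm shrinkage.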

Sequence | shrunken log2 fold change
RRIRIRPPRLPRPRPRPNIMPRP | -0.947
RRIRIRPPRLPRPRPRPNLLPRP | -0.309
RRIRIRPPRLPRPRPRPNMDPRP | -0.874
RRIRIRPPRLPRPRPRPNNMPRP | -0.959
RRIRIRPPRLPRPRPRPNNWPRP | -0.535
RRIRIRPPRLPRPRPRPNPDPRP | -0.659
RRIRIRPPRLPRPRPRPNQCPRP | -0.465
RRIRIRPPRLPRPRPRPNQRPRP | 0.00427
RRIRIRPPRLPRPRPRPNREPRP | -0.0355
RRIRIRPPRLPRPRPRPNSAPRP | -0.234
RRIRIRPPRLPRPRPRPNSRPRP | -0.0636
RRIRIRPPRLPRPRPRPNTSPRP | -0.639
RRIRIRPPRLPRPRPRPNVHPRP | -0.398
RRIRIRPPRLPRPRPRPNWTPRP | 0.117
RRIRIRPPRLPRPRPRPNYHPRP | -0.733
RRIRIRPPRLPRPRPRPNYVPRP | -0.115
RRIRIRPPRLPRPRPRPPCPPRP | -0.141
RRIRIRPPRLPRPRPRPPDAPRP | 0.5
RRIRIRPPRLPRPRPRPPDMPRP | -0.16
RRIRIRPPRLPRPRPRPPDSPRP | -0.0582
RRIRIRPPRLPRPRPRPPEDPRP | 0.324
RRIRIRPPRLPRPRPRPPFTPRP | 0.0753
RRIRIRPPRLPRPRPRPPGNPRP | -0.233
RRIRIRPPRLPRPRPRPPGQPRP | -0.125
RRIRIRPPRLPRPRPRPPHFPRP | -0.138

Sequence | shrunken log2 fold change
RRIRIRPPRLPRPRPRPPHIPRP | -0.542
RRIRIRPPRLPRPRPRPPHLPRP | -0.14
RRIRIRPPRLPRPRPRPPHTPRP | -0.055
RRIRIRPPRLPRPRPRPPIFPRP | -0.0827
RRIRIRPPRLPRPRPRPPITPRP | -0.366
RRIRIRPPRLPRPRPRPPKWPRP | -0.00369
RRIRIRPPRLPRPRPRPPLEPRP | -0.272
RRIRIRPPRLPRPRPRPPMAPRP | -0.256
RRIRIRPPRLPRPRPRPPMCPRP | -0.0556
RRIRIRPPRLPRPRPRPPNGPRP | -0.291
RRIRIRPPRLPRPRPRPPNRPRP | -0.462
RRIRIRPPRLPRPRPRPPNVPRP | 0.0421
RRIRIRPPRLPRPRPRPPPDPRP | 0.654
RRIRIRPPRLPRPRPRPPPNPRP | 0.776
RRIRIRPPRLPRPRPRPPPPPRP | 0.714
RRIRIRPPRLPRPRPRPPSEPRP | -0.118
RRIRIRPPRLPRPRPRPPSMPRP | -0.206
RRIRIRPPRLPRPRPRPPTEPRP | -0.323
RRIRIRPPRLPRPRPRPPWQPRP | 1.02
RRIRIRPPRLPRPRPRPPYKPRP | -0.386
RRIRIRPPRLPRPRPRPPYMPRP | -1.19
RRIRIRPPRLPRPRPRPQAYPRP | 0.0364
RRIRIRPPRLPRPRPRPQCVPRP | -0.0555
RRIRIRPPRLPRPRPRPQCWPRP | 0.203
RRIRIRPPRLPRPRPRPQECPRP | -0.0195

Sequence | shrunken log2 fold change
RRIRIRPPRLPRPRPRPQFLPRP | -0.186
RRIRIRPPRLPRPRPRPQHMPRP | -0.94
RRIRIRPPRLPRPRPRPQIVPRP | -0.167
RRIRIRPPRLPRPRPRPQKHPRP | -0.46
RRIRIRPPRLPRPRPRPQLRPRP | -0.203
RRIRIRPPRLPRPRPRPQLWPRP | 0.575
RRIRIRPPRLPRPRPRPQMKPRP | -0.747
RRIRIRPPRLPRPRPRPQNQPRP | -1.03
RRIRIRPPRLPRPRPRPQPDPRP | -0.483
RRIRIRPPRLPRPRPRPQPGPRP | 0.116
RRIRIRPPRLPRPRPRPQPKPRP | -0.0343
RRIRIRPPRLPRPRPRPQSDPRP | -0.212
RRIRIRPPRLPRPRPRPQSPPRP | 0.0218
RRIRIRPPRLPRPRPRPQTQPRP | -0.244
RRIRIRPPRLPRPRPRPQTYPRP | -0.636
RRIRIRPPRLPRPRPRPQYGPRP | 0.0914
RRIRIRPPRLPRPRPRPQYHPRP | -0.436
RRIRIRPPRLPRPRPRPQYNPRP | -1.12
RRIRIRPPRLPRPRPRPRADPRP | 0.0888
RRIRIRPPRLPRPRPRPRATPRP | 0.728
RRIRIRPPRLPRPRPRPRCTPRP | -0.141
RRIRIRPPRLPRPRPRPRDDPRP | 0.168
RRIRIRPPRLPRPRPRPRDPPRP | 1.94
RRIRIRPPRLPRPRPRPRFGPRP | 0.174
RRIRIRPPRLPRPRPRPRGCPRP | 0.255
